This assay addresses recombinant human CD74 (C27S) (human) (UniProt P04233). Nature of the assay: ELISA.

As a reminder, the IC50 is the concentration that gives 50% inhibition.

In the case of “DRα1-hMOG-35-55 (from UniProt P01903 15-97)”, the half-maximal inhibitory concentration (IC50) came to 1640 nM.

For DRα1-mMOG-35-55, the IC50 was determined as 937 nM.
